{"source": "FireProtDB (doi:10.1021/bi000442n)", "conditions": "Mus musculus; pH 7.5; Thermal; CD; KH2PO4-K2HPO4 10 mM; NaCl 0.0 mM; reversible: yes; whole UniProt chain shown", "note": "Where “and” joins values, the source holds several entries; their conditions need not be identical. Identical values can stand only once."}
{"protein": "Signal peptide peptidase wild type, Q9D8V0 (protein) MDSAVSDPHNGSAEAGTPANGTTRPPSTPEGIALAYGSLLLMALLPIFFGALRSVRCARGKSSSDMPETITSRDAARFPIIASCTLLGLYLFFKIFSQEYINLLLSMYFFVLGILALSHTISPFMNKFFPANFPNRQYQLLFTQGSGENKEEIINYEFDTKDLVCLGLSSVVGVWYLLRKHWIANNLFGLAFSLNGVELLHLNNVSTGCILLGGLFIYDIFWVFGTNVMVTVAKSFEAPIKLVFPQDLLEKGLEADNFAMLGLGDIVIPGIFIALLLRFDISLKKNTHTYFYTSFAAYIFGLGLTIFIMHIFKHAQPALLYLVPACIGFPVLVALAKGEVAEMFSYEESNPKDPAAETESKEESTEASASKRLEKKEK", "values": [{"measurement": "Tm", "result": "43.7 °C and 41 °C"}]}
